Measurements published in patent US20130209454A1.

What was measured:
Assay in all cases: cell-based or functional assay
[1] = molecular target: HIV-1 Env of strain Ce1086_B2 (HIV-1)
[2] = molecular target: Env of HIV-1 strain Q842.d12 (HIV-1)
[3] = molecular target: Env of HIV-1 strain X1632_S2_B10 (HIV-1)
[4] = molecular target: Env of HIV-1 strain 620345.c01 (HIV-1)
[5] = molecular target: Env of HIV-1 strain 9004SS_A3_4 (HIV-1)
[6] = molecular target: HIV-1 Env of strain BJOX025000.01.1 (HIV-1)
[7] = molecular target: HIV-1 Env of strain BF1266.431a (HIV-1)
[8] = molecular target: HIV-1 Env of strain Du156.12 (HIV-1)
[9] = molecular target: HIV-1 Env of strain 1012_11_TC21_3257 (HIV-1)
[10] = molecular target: HIV-1 Env of strain WITO4160.33 (HIV-1)
[11] = molecular target: Env of HIV-1 strain WEAU_d15_410_787 (HIV-1)
[12] = molecular target: Env of HIV-1 strain ZM214M.PL15 (HIV-1)
[13] = molecular target: HIV-1 Env of strain 211-9 (HIV-1)
[14] = molecular target: HIV-1 Env of strain CAP45.2.00.G3 (HIV-1)
[15] = molecular target: HIV-1 Env of strain CNE53 (HIV-1)
[16] = molecular target: HIV-1 Env of strain 62357_14_D3_4589 (HIV-1)
[17] = molecular target: HIV-1 Env of strain 6240_08_TA5_4622 (HIV-1)
[18] = molecular target: Env of HIV-1 strain Ce703010054_2A2 (HIV-1)
[19] = molecular target: Env of HIV-1 strain 191821_E6_1 (HIV-1)
[20] = molecular target: HIV-1 Env of strain Du172.17 (HIV-1)
[21] = molecular target: Env of HIV-1 strain Ce0393_C3 (HIV-1)
[22] = molecular target: Env of HIV-1 strain T278-50 (HIV-1)
[23] = molecular target: Env of HIV-1 strain Ce2010_F5 (HIV-1)
[24] = molecular target: Env of HIV-1 strain QH0692.42 (HIV-1)
[25] = molecular target: Env of HIV-1 strain Q769.d22 (HIV-1)
[26] = molecular target: Env of HIV-1 strain 6480.v4.c25 (HIV-1)
[27] = molecular target: Env of HIV-1 strain 1012_11_TC21_3257 (HIV-1)
[28] = molecular target: HIV-1 Env of strain CNE5 (HIV-1)
[29] = molecular target: Env of HIV-1 strain 6540.v4.c1 (HIV-1)
[30] = molecular target: HIV-1 Env of strain 191955_A11 (HIV-1)
[31] = molecular target: HIV-1 Env of strain 6952.v1.c20 (HIV-1)
[32] = molecular target: HIV-1 Env of strain X1632_S2_B10 (HIV-1)
[33] = molecular target: HIV-1 Env of strain Ce1176_A3 (HIV-1)
[34] = molecular target: Env of HIV-1 strain ZM247v1(Rev-) (HIV-1)
[35] = molecular target: HIV-1 Env of strain 246F C1G (HIV-1)
[36] = molecular target: HIV-1 Env of strain 3817.v2.c59 (HIV-1)
[37] = molecular target: HIV-1 Env of strain T257-31 (HIV-1)
[38] = molecular target: HIV-1 Env of strain TRO.11 (HIV-1)
[39] = molecular target: Env of HIV-1 strain CAAN5342.A2 (HIV-1)
[40] = molecular target: Env of HIV-1 strain X1254_c3 (HIV-1)
[41] = molecular target: Env of HIV-1 strain CNE19 (HIV-1)
[42] = molecular target: Env of HIV-1 strain P0402_c2_11 (HIV-1)
[43] = molecular target: HIV-1 Env of strain AC10.0.29 (HIV-1)
[44] = molecular target: Env of HIV-1 strain Du156.12 (HIV-1)
[45] = molecular target: HIV-1 Env of strain R1166.c01 (HIV-1)
[46] = molecular target: Env of HIV-1 strain HIV-16055-2.3 (HIV-1)
[47] = molecular target: Env of HIV-1 strain X1193_c1 (HIV-1)
[48] = molecular target: HIV-1 Env of strain 6545.v4.c1 (HIV-1)
[49] = molecular target: Env of HIV-1 strain X2131_C1_B5 (HIV-1)
[50] = molecular target: Env of HIV-1 strain HIV-0013095-2.11 (HIV-1)
[51] = molecular target: Env of HIV-1 strain 3301.v1.c24 (HIV-1)

Chain of NIH45-46 (antibody) (VH): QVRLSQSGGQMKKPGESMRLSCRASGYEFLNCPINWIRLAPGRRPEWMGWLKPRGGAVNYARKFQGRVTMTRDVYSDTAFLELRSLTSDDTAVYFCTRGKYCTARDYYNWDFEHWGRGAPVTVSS
Chain of NIH45-46 (antibody) (V domain): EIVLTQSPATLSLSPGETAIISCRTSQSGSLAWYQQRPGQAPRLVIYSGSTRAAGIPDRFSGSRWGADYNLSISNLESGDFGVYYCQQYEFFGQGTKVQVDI

Question: What does the source list for NIH45-46 (antibody)?
Answer: IC50, pseudovirus neutralization [1]: 0.04 µg/mL; IC80 [2]: 0.073 µg/mL; IC80 [3]: > 50 µg/mL; IC80 [4]: > 50 µg/mL; IC80 [5]: 0.65 µg/mL; IC50, pseudovirus neutralization [6]: 0.18 µg/mL; IC50, pseudovirus neutralization [7]: 0.01 µg/mL; IC50, pseudovirus neutralization [8]: 0.02 µg/mL; IC50, pseudovirus neutralization [9]: 0.01 µg/mL; IC50, pseudovirus neutralization [10]: 0.06 µg/mL; IC80 [11]: 0.015 µg/mL; IC80 [12]: 0.59 µg/mL; IC50, pseudovirus neutralization [13]: > 50 µg/mL; IC50, pseudovirus neutralization [14]: > 50 µg/mL; IC50, pseudovirus neutralization [15]: 0.008 µg/mL; IC50, pseudovirus neutralization [16]: 0.06 µg/mL; IC50, pseudovirus neutralization [17]: 0.44 µg/mL; IC80 [18]: 0.538 µg/mL; IC80 [19]: 0.46 µg/mL; IC50, pseudovirus neutralization [20]: > 50 µg/mL; IC80 [21]: 0.936 µg/mL; IC80 [22]: > 50 µg/mL; IC80 [23]: 0.357 µg/mL; IC80 [24]: 1.71 µg/mL; IC80 [25]: 0.033 µg/mL; IC80 [26]: 0.1 µg/mL; IC80 [27]: 0.04 µg/mL; IC50, pseudovirus neutralization [28]: 0.09 µg/mL; IC80 [29]: > 50 µg/mL; IC50, pseudovirus neutralization [30]: 0.11 µg/mL; IC50, pseudovirus neutralization [31]: 0.02 µg/mL; IC50, pseudovirus neutralization [32]: 0.07 µg/mL; IC50, pseudovirus neutralization [33]: 0.93 µg/mL; IC80 [34]: 24.5 µg/mL; IC50, pseudovirus neutralization [35]: > 50 µg/mL; IC50, pseudovirus neutralization [36]: > 50 µg/mL; IC50, pseudovirus neutralization [37]: 0.49 µg/mL; IC50, pseudovirus neutralization [38]: 1.61 µg/mL; IC80 [39]: 0.4 µg/mL; IC80 [40]: 0.107 µg/mL; IC80 [41]: 0.37 µg/mL; IC80 [42]: 0.214 µg/mL; IC50, pseudovirus neutralization [43]: 0.56 µg/mL; IC80 [44]: 0.054 µg/mL; IC50, pseudovirus neutralization [45]: 0.31 µg/mL; IC80 [46]: 0.06 µg/mL; IC80 [47]: 0.064 µg/mL; IC50, pseudovirus neutralization [48]: > 50 µg/mL; IC80 [49]: 0.88 µg/mL; IC80 [50]: 0.03 µg/mL; IC80 [51]: 0.033 µg/mL
